Source: patent US20180371065A1

Assays:
[1] = target: human α-synuclein, full length, wild type (human) (UniProt P37840); assay: direct ELISA, 20 µg/ml coating of full length α-synuclein
[2] = target: human α-synuclein, full length, wild type (human) (UniProt P37840); assay: direct ELISA, 100 ng/ml coating of full length α-synuclein

antibody Syn211 (Sigma)
EC50 [1]: 0.335 nM
EC50 [2]: 0.099 nM
